Substrate in data set [1]: CC(=O)CCC(C)=O
The data set is described as follows: purified protein. It is filed as biochemical, Levilactobacillus brevis. As to conditions: 0.3 mM NADPH, 1 mM MgCl2, 50 mM TEA pH 7.0, 30 °C.

Substrate in data set [2]: COC(=O)CC(C)=O
The data set is described as follows: purified protein. It is filed as biochemical, Levilactobacillus brevis. To be noted: 0.3 mM NADPH, 1 mM MgCl2, 50 mM TEA pH 7.0, 30 °C.

For two proteins, Km and Vmax results are on record in publication PMC6969876, “NADPH biosensor-based identification of an alcohol dehydrogenase variant with improved catalytic properties caused by a single charge reversal at the protein surface” (AMB Express, 2020).

B1: LbADH (Levilactobacillus brevis) (protein)
chain: SNRLDGKVAIITGGTLGIGLAIATKFVEEGAKVMITGRHSDVGEKAAKSVGTPDQIQFFQHDSSDEDGWTKLFDATEKAFGPVSTLVNNAGIAVNKSVEETTTAEWRKLLAVNLDGVFFGTRLGIQRMKNKGLGASIINMSSIEGFVGDPSLGAYNASKGAVRIMSKSAALDCALKDYDVRVNTVHPGYIKTPLVDDLPGAEEAMSQRTKTPMGHIGEPNDIAYICVYLASNESKFATGSEFVVDGGYTAQ
The Km is the concentration of substrate that gives half-maximal velocity. As usually defined, the Vmax is the rate approached at saturating substrate. With B1, in “purified protein [1]”, the Km worked out at 5100 ± 600 µM and the Vmax turned out to be 148 µmol/min/mg. In “purified protein [2]”, the Km came to 1130 ± 60 µM and the Vmax was 154 µmol/min/mg.

B2: LbADH (Levilactobacillus brevis; K72E) (protein)
chain: SNRLDGKVAIITGGTLGIGLAIATKFVEEGAKVMITGRHSDVGEKAAKSVGTPDQIQFFQHDSSDEDGWTELFDATEKAFGPVSTLVNNAGIAVNKSVEETTTAEWRKLLAVNLDGVFFGTRLGIQRMKNKGLGASIINMSSIEGFVGDPSLGAYNASKGAVRIMSKSAALDCALKDYDVRVNTVHPGYIKTPLVDDLPGAEEAMSQRTKTPMGHIGEPNDIAYICVYLASNESKFATGSEFVVDGGYTAQ
As to B2, the Km stood at 4300 ± 500 µM in the data set “purified protein [1]” and 670 ± 40 µM in “purified protein [2]”. The Vmax in the data set “purified protein [1]” is 173 µmol/min/mg; in “purified protein [2]” it was 221 µmol/min/mg.
